Bridge positions count the residues as written; N and C are the ends. Square brackets hold non-standard residues; d marks the D form. dPhe(3-Cl) = N[C@H](Cc1cccc(Cl)c1)C(=O)O; dPhe(4-Cl) = N[C@H](Cc1ccc(Cl)cc1)C(=O)O; dPhe(4-Me) = Cc1ccc(C[C@@H](N)C(=O)O)cc1; dPhe(2-Cl) = N[C@H](Cc1ccccc1Cl)C(=O)O; dPhe(4-F) = N[C@H](Cc1ccc(F)cc1)C(=O)O; 2Nal = N[C@@H](Cc1ccc2ccccc2c1)C(=O)O; d1Nal = N[C@H](Cc1cccc2ccccc12)C(=O)O; d2Nal = N[C@H](Cc1ccc2ccccc2c1)C(=O)O; dPhe(2-F) = N[C@H](Cc1ccccc1F)C(=O)O; Cit = NC(=O)NCCC[C@H](N)C(=O)O; Nle = CCCC[C@H](N)C(=O)O; Orn = NCCC[C@H](N)C(=O)O; Dab = NCC[C@H](N)C(=O)O; Dap = NC[C@H](N)C(=O)O
Target: human melanocortin-1 receptor hMCR-1 expressed by the human melanoma cell line HBL (human, UniProt Q01726 1-317)
Assay: cell-based or functional assay

Sequence of human melanocortin-1 receptor hMCR-1 expressed by the human melanoma cell line HBL (Q01726 whole entry): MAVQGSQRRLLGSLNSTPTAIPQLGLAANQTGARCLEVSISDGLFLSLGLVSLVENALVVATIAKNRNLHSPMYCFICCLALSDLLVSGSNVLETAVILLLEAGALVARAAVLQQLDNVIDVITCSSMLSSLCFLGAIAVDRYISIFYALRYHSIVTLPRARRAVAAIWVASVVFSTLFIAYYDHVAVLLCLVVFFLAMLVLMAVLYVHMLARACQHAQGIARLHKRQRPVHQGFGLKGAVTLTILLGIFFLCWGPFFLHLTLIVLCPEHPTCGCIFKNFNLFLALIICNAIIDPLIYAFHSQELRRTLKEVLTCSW

Row | Binder | MC-1 EC50 (average; cAMP HBL) [nM] | MC-1 Emax (average; cAMP HBL) [%]
1 | Ac-[dF]EH[dF]R[Dab]W-NH2 (lactam 2-6) [Ac-D-Phe-cyclo(Glu-His-D-Phe-Arg-Dab)-Trp-NH2] | – | 75
2 | Ac-[Nle]EH[dF]R[Dap]W-OH (lactam 2-6) [Ac-Nle-cyclo(Glu-His-D-Phe-Arg-Dap)-Trp-OH] | 0.107 | 81
3 | Ac-[Nle]EH[dF]R[Dab]W-NH2 (lactam 2-6) [Ac-Nle-cyclo(Glu-His-D-Phe-Arg-Dab)-Trp-NH2] | – | 95
4 | Ac-[Nle]EH[dF]R[Dab][2Nal]-NH2 (lactam 2-6) [Ac-Nle-cyclo(Glu-His-D-Phe-Arg-Dab)-Nal 2-NH2] | – | 83
5 | Ac-[Nle]EH[dF]R[Dab][d2Nal]-NH2 (lactam 2-6) [Ac-Nle-cyclo(Glu-His-D-Phe-Arg-Dab)-Nal 2-NH2 (SEQ ID NO: 14)] | – | 69
6 | Ac-[Nle]EH[dF]R[Dab]A-NH2 (lactam 2-6; SMILES CCCC[C@H](NC(C)=O)C(=O)N[C@H]1CCC(=O)NCC[C@@H](C(=O)N[C@@H](C)C(N)=O)NC(=O)[C@H](CCCNC(=N)N)NC(=O)[C@@H](Cc2ccccc2)NC(=O)[C@H](Cc2c[nH]cn2)NC1=O) [Ac-Nle-cyclo(Glu-His-D-Phe-Arg-Dab)-Ala-NH2] | 0.008 | 97
7 | Ac-[Nle]EH[dF]R[Dab][d1Nal]-NH2 (lactam 2-6) [Ac-Nle-cyclo(Glu-His-D-Phe-Arg-Dab)-D-Nal 1-NH2] | – | 73
8 | Ac-[Nle][Dab]H[dF]R[Dab]W-NH2 (linker 2-6 via C(:O)‑(CH2)2‑C(:O)) [Ac-Nle-cyclo(Dab-His-D-Phe-Arg-Dab)-Trp-NH2 with bridge C(═O)-(CH2)2-C(═O)] | – | 92
9 | Ac-[Nle]EK[dF]R[Dab]W-NH2 (lactam 2-6) [Ac-Nle-cyclo(Glu-Lys-D-Phe-Arg-Dab)-Trp-NH2 (SEQ ID NO: 56)] | – | 108
10 | Ac-[Nle]EH[dF]R[Dab][dW]-NH2 (lactam 2-6) [Ac-Nle-cyclo(Glu-His-D-Phe-Arg-Dab)-D-Trp-NH2] | – | 93
11 | Ac-[Nle]E[Cit][dF]R[Dab]W-NH2 (lactam 2-6) [Ac-Nle-cyclo(Glu-Cit-D-Phe-Arg-Dab)-Trp-NH2 (SEQ ID NO: 54)] | – | 97
12 | Ac-[Nle]E[Dab][dF]R[Dab]W-NH2 (lactam 2-6) [Ac-Nle-cyclo(Glu-Dab-D-Phe-Arg-Dab)-Trp-NH2 (SEQ ID NO: 57)] | – | 108
13 | Ac-[Nle]EH[dF]R[Orn]W-NH2 (lactam 2-6) [Ac-Nle-cyclo(Glu-His-D-Phe-Arg-Orn)-Trp-NH2] | – | 91
14 | Ac-[Nle]E[Orn][dPhe(2-Cl)]R[Dab]-NH2 (lactam 2-6; SMILES CCCC[C@H](NC(C)=O)C(=O)N[C@H]1CCC(=O)NCC[C@@H](C(N)=O)NC(=O)[C@H](CCCNC(=N)N)NC(=O)[C@@H](Cc2ccccc2Cl)NC(=O)[C@H](CCCN)NC1=O) [Ac-Nle-cyclo(Glu-Orn-D-Phe(2-Cl)-Arg-Dab)-NH2] | 1 | 88
15 | Ac-[Nle]EH[dF]R[Dab]K-NH2 (lactam 2-6; SMILES CCCC[C@H](NC(C)=O)C(=O)N[C@H]1CCC(=O)NCC[C@@H](C(=O)N[C@@H](CCCCN)C(N)=O)NC(=O)[C@H](CCCNC(=N)N)NC(=O)[C@@H](Cc2ccccc2)NC(=O)[C@H](Cc2c[nH]cn2)NC1=O) [Ac-Nle-cyclo(Glu-His-D-Phe-Arg-Dab)-Lys-NH2 (SEQ ID NO: 55)] | 0.175 | 91

The next lines start with the values.

Row | MC-1 EC50 (average; cAMP HBL) [nM] | MC-1 Emax (average; cAMP HBL) [%] | Binder
16 | 0.8 | 95 | Ac-[Nle]E[Orn][dPhe(2-F)]R[Dab]-NH2 (lactam 2-6; SMILES CCCC[C@H](NC(C)=O)C(=O)N[C@H]1CCC(=O)NCC[C@@H](C(N)=O)NC(=O)[C@H](CCCNC(=N)N)NC(=O)[C@@H](Cc2ccccc2F)NC(=O)[C@H](CCCN)NC1=O) [Ac-Nle-cyclo(Glu-Orn-D-Phe(2-F)-Arg-Dab)-NH2]
17 | – | 109 | Ac-[Nle]E[Orn][dF]R[Dab]W-NH2 (lactam 2-6) [Ac-Nle-cyclo(Glu-Orn-D-Phe-Arg-Dab)-Trp-NH2 (SEQ ID NO: 58)]
18 | 0.1 | 100 | Ac-[Nle]E[Orn][dPhe(4-Cl)]R[Dab]-NH2 (lactam 2-6; SMILES CCCC[C@H](NC(C)=O)C(=O)N[C@H]1CCC(=O)NCC[C@@H](C(N)=O)NC(=O)[C@H](CCCNC(=N)N)NC(=O)[C@@H](Cc2ccc(Cl)cc2)NC(=O)[C@H](CCCN)NC1=O) [Ac-Nle-cyclo(Glu-Orn-D-Phe(4-Cl)-Arg-Dab)-NH2]
19 | 0.5 | 102 | Ac-[Nle]E[Orn][dF]R[Dab]-NH2 (lactam 2-6; SMILES CCCC[C@H](NC(C)=O)C(=O)N[C@H]1CCC(=O)NCC[C@@H](C(N)=O)NC(=O)[C@H](CCCNC(=N)N)NC(=O)[C@@H](Cc2ccccc2)NC(=O)[C@H](CCCN)NC1=O) [Ac-Nle-cyclo(Glu-Orn-D-Phe-Arg-Dab)-NH2]
20 | 1 | 102 | Ac-[Nle]E[Orn][dPhe(4-F)]R[Dab]-NH2 (lactam 2-6; SMILES CCCC[C@H](NC(C)=O)C(=O)N[C@H]1CCC(=O)NCC[C@@H](C(N)=O)NC(=O)[C@H](CCCNC(=N)N)NC(=O)[C@@H](Cc2ccc(F)cc2)NC(=O)[C@H](CCCN)NC1=O) [Ac-Nle-cyclo(Glu-Orn-D-Phe(4-F)-Arg-Dab)-NH2]
21 | 0.076 | 96 | Ac-[Nle]E[Orn][dPhe(4-Me)]R[Dab]-NH2 (lactam 2-6; SMILES CCCC[C@H](NC(C)=O)C(=O)N[C@H]1CCC(=O)NCC[C@@H](C(N)=O)NC(=O)[C@H](CCCNC(=N)N)NC(=O)[C@@H](Cc2ccc(C)cc2)NC(=O)[C@H](CCCN)NC1=O) [Ac-Nle-cyclo(Glu-Orn-D-Phe(4-Me)-Arg-Dab)-NH2]
22 | – | 102 | Ac-[Nle]EP[dF]R[Dab]-NH2 (lactam 2-6) [Ac-Nle-cyclo(Glu-Pro-D-Phe-Arg-Dab)-NH2]
23 | 0.18 | 97 | Ac-[Nle]EP[dF]R[Dab]W-NH2 (lactam 2-6; SMILES CCCC[C@H](NC(C)=O)C(=O)N[C@H]1CCC(=O)NCC[C@@H](C(=O)N[C@@H](Cc2c[nH]c3ccccc23)C(N)=O)NC(=O)[C@H](CCCNC(=N)N)NC(=O)[C@@H](Cc2ccccc2)NC(=O)[C@@H]2CCCN2C1=O) [Ac-Nle-cyclo(Glu-Pro-D-Phe-Arg-Dab)-Trp-NH2]
24 | 1 | 97 | Ac-[Nle]E[Orn][dPhe(3,4-F)]R[Dab]-NH2 (lactam 2-6) [Ac-Nle-cyclo(Glu-Orn-D-Phe(3,4-F)-Arg-Dab)-NH2]
25 | 2 | 86 | Ac-[Nle]E[Orn][dPhe(3-Cl)]R[Dab]-NH2 (lactam 2-6; SMILES CCCC[C@H](NC(C)=O)C(=O)N[C@H]1CCC(=O)NCC[C@@H](C(N)=O)NC(=O)[C@H](CCCNC(=N)N)NC(=O)[C@@H](Cc2cccc(Cl)c2)NC(=O)[C@H](CCCN)NC1=O) [Ac-Nle-cyclo(Glu-Orn-D-Phe(3-Cl)-Arg-Dab)-NH2]
26 | 0.12 | 99 | Ac-[Nle]E[Orn][dPhe(4-OMe)]R[Dab]-NH2 (lactam 2-6) [Ac-Nle-cyclo(Glu-Orn-D-Phe(4-OMe)-Arg-Dab)-NH2]
